Experimental data published in the supplement of paper PMC10724198.
± gives the standard deviation of the averaged measurements.

Assays:
Saccharomyces cerevisiae [1] = assay: protein stability index of tFT-peptide fusion (C-terminal peptide) (PSI (0-1 scale)); higher = more stable (slower turnover); details: genetic background: wild type; temperature: 30 C
Saccharomyces cerevisiae [2] = assay: as above
Procedure: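 MPS profiling in S. cerevisiae of the tFT-X12 degron library: putative degron peptides plus stable controls, 12 aa, fused to the C-terminus of a sfGFP-mCherry timer. Cells are FACS-sorted into 8 mCherry/sfGFP bins and deep-sequenced. PSI runs from 0 (unstable) to 1 (stable). Backgrounds are wild type, das1Δ and doa10Δ at 30 °C, and wild type, das1Δ, cdc34-1 and cdc53-1 at 37 °C; 2-3 technical replicates each.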

[3] = genetic background: cdc34-1, temperature: 37 C
[4] = genetic background: cdc53-1, temperature: 37 C
[5] = genetic background: das1 deletion, temperature: 30 C
[6] = genetic background: das1 deletion, temperature: 37 C
[7] = genetic background: doa10 deletion, temperature: 30 C
[8] = genetic background: wild type, temperature: 30 C
[9] = genetic background: wild type, temperature: 37 C
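Note: PSI is a weighted mean of sequencing reads over stability bins, variants kept only with over 10 reads, mCherry proximal and sfGFP distal, peptide attached via GGGS linker.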

Sequence	protein stability index (Saccharomyces cerevisiae [1])	protein stability index (Saccharomyces cerevisiae [2]; [3])	protein stability index (Saccharomyces cerevisiae [2]; [4])	protein stability index (Saccharomyces cerevisiae [2]; [5])	protein stability index (Saccharomyces cerevisiae [2]; [6])	protein stability index (Saccharomyces cerevisiae [2]; [7])	protein stability index (Saccharomyces cerevisiae [2]; [8])	protein stability index (Saccharomyces cerevisiae [2]; [9])
PPPPTPRPLLPP	0.449 ± 0.029	0.662 ± 0.011	0.7253 ± 0.0031	0.677 ± 0.034	0.73 ± 0.021	0.666 ± 0.039	0.667 ± 0.011	0.697 ± 0.012
YVLWFVCGVGFV	0.392 ± 0.041	0.352 ± 0.015	0.462 ± 0.031	0.29 ± 0.045	0.4768 ± 0.0011	0.262 ± 0.024	0.298 ± 0.02	0.453 ± 0.028
LCTCFLVLLLWC	0.337 ± 0.1	0.387 ± 0.032	0.404 ± 0.02	0.339 ± 0.024	0.46 ± 0.01	0.34 ± 0.01	0.315 ± 0.018	0.4407 ± 0.0027
GVRCRLVIRVLG	0.316 ± 0.028	0.47 ± 0.035	0.508 ± 0.0085	0.286 ± 0.016	0.516 ± 0.0056	0.16864 ± 0.00011	0.22 ± 0.0075	0.407 ± 0.0064
FVSFTVSFSVVV	0.379 ± 0.032	0.296 ± 0.018	0.38 ± 0.031	0.334 ± 0.025	0.417 ± 0.01	0.357 ± 0.031	0.342 ± 0.0055	0.382 ± 0.0063
GGWGVFGVWVWM	0.324 ± 0.0082	0.476 ± 0.051	0.557 ± 0.0062	0.429 ± 0.027	0.59 ± 0.0025	0.186 ± 0.0072	0.214 ± 0.031	0.422 ± 0.012
VVRSIVVYTCVF	0.352 ± 0.021	0.3284 ± 0.0017	0.365 ± 0.041	0.262 ± 0.026	0.4241 ± 0.0025	0.219 ± 0.0039	0.253 ± 0.02	0.405 ± 0.0074
GMLIYVIGGLSH	0.508 ± 0.06	0.652 ± 0.016	0.652 ± 0.04	0.435 ± 0.027	0.667 ± 0.017	0.438 ± 0.011	0.4464 ± 0.0034	0.626 ± 0.019
ESCWVSRVGVCR	0.694 ± 0.076	0.685 ± 0.03	0.731 ± 0.038	0.649 ± 0.062	0.7347 ± 0.0049	0.588 ± 0.0086	0.608 ± 0.01	0.687 ± 0.018
LIFFFCSWVFRF	0.377 ± 0.012	0.3037 ± 0.00048	0.291 ± 0.032	0.402 ± 0.061	0.464 ± 0.031	0.327 ± 0.044	0.272 ± 0.038	0.365 ± 0.0071
WVGVVLLSVVGG	0.279 ± 0.032	0.161 ± 0.016	0.249 ± 0.008	0.2 ± 0.032	0.344 ± 0.0057	0.164 ± 0.008	0.183 ± 0.025	0.32339 ± 0.00026
VLPLRCSWAAQG	0.39 ± 0.035	0.693 ± 0.007	0.7521 ± 0.005	0.639 ± 0.026	0.747 ± 0.027	0.246 ± 0.019	0.298 ± 0.013	0.538 ± 0.044
RVCWLRAFGFLV	0.305 ± 0.028	0.666 ± 0.033	0.718 ± 0.019	0.587 ± 0.022	0.724 ± 0.024	0.258 ± 0.015	0.29 ± 0.051	0.57118 ± 0.00039
VYIVLLLLFLRP	0.308 ± 0.031	0.356 ± 0.0046	0.378 ± 0.013	0.317 ± 0.031	0.407 ± 0.021	0.3194 ± 0.003	0.319 ± 0.015	0.3951 ± 0.0015
VCFLCIWLYSED	0.344 ± 0.026	0.268 ± 0.028	0.358 ± 0.013	0.227 ± 0.041	0.4305 ± 0.004	0.218 ± 0.017	0.221 ± 0.033	0.418 ± 0.056
PLLPLPRFPLFA	0.41 ± 0.021	0.547 ± 0.018	0.558 ± 0.038	0.411 ± 0.03	0.595 ± 0.021	0.332 ± 0.009	0.367 ± 0.013	0.529 ± 0.019
SLFDQDCGGTVW	0.764 ± 0.027	0.756 ± 0.034	0.78 ± 0.013	0.686 ± 0.016	0.784 ± 0.014	0.655 ± 0.014	0.6706 ± 0.0058	0.804 ± 0.016
LCVFRFFLFFFL	0.402 ± 0.054	0.35 ± 0.012	0.371 ± 0.034	0.327 ± 0.032	0.461 ± 0.012	0.364 ± 0.019	0.291 ± 0.027	0.427 ± 0.016
RLARRGGGWGPG	0.5 ± 0.1	0.681 ± 0.012	0.7334 ± 0.0049	0.657 ± 0.034	0.706 ± 0.022	0.657 ± 0.034	0.67 ± 0.046	0.7281 ± 0.00042
WEPILLELELCV	0.4357 ± 0.0036	0.498 ± 0.035	0.497 ± 0.026	0.395 ± 0.03	0.487 ± 0.023	0.327 ± 0.021	0.388 ± 0.013	0.538 ± 0.068

Sequence	protein stability index (Saccharomyces cerevisiae [1])	protein stability index (Saccharomyces cerevisiae [2]; [3])	protein stability index (Saccharomyces cerevisiae [2]; [4])	protein stability index (Saccharomyces cerevisiae [2]; [5])	protein stability index (Saccharomyces cerevisiae [2]; [6])	protein stability index (Saccharomyces cerevisiae [2]; [7])	protein stability index (Saccharomyces cerevisiae [2]; [8])	protein stability index (Saccharomyces cerevisiae [2]; [9])
VSWSVSALIYLK	0.35 ± 0.0075	0.169 ± 0.017	0.1 ± 0.026	0.233 ± 0.039	0.319 ± 0.014	0.572 ± 0.01	0.277 ± 0.034	0.295 ± 0.015
GCLSFVAAVHLH	0.4325 ± 0.0028	0.624 ± 0.026	0.6949 ± 0.0026	0.598 ± 0.043	0.69689 ± 0.00038	0.284 ± 0.024	0.332 ± 0.028	0.528 ± 0.034
CLISILLFLCFT	0.4162 ± 0.0015	0.439 ± 0.029	0.509 ± 0.074	0.392 ± 0.014	0.459 ± 0.037	0.376 ± 0.021	0.39 ± 0.021	0.446 ± 0.0076
GGGVGVAVVLFW	0.417 ± 0.016	0.432 ± 0.024	0.501 ± 0.012	0.34 ± 0.027	0.53 ± 0.011	0.308 ± 0.011	0.342 ± 0.02	0.5056 ± 0.0016
RLELTRIMIVAI	0.207 ± 0.035	0.06 ± 0.0059	0.08016 ± 0.00021	0.182 ± 0.024	0.214 ± 0.0094	0.109 ± 0.015	0.117 ± 0.028	0.102 ± 0.02
FSPLVCLLFFLF	0.3938 ± 0.00098	0.492 ± 0.031	0.565 ± 0.018	0.424 ± 0.017	0.5725 ± 0.00062	0.32 ± 0.0052	0.333 ± 0.019	0.4778 ± 0.0016
LWWTRVILYGYI	0.387 ± 0.036	0.51 ± 0.0061	0.571 ± 0.021	0.456 ± 0.027	0.5496 ± 0.0039	0.34 ± 0.0087	0.353 ± 0.016	0.445 ± 0.013
IPFRRCFWFFWV	0.2345 ± 0.0012	0.537 ± 0.029	0.7 ± 0.011	0.593 ± 0.035	0.6909 ± 0.0044	0.143 ± 0.014	0.167 ± 0.024	0.204 ± 0.027
LPPHLPFPLSAA	0.383 ± 0.011	0.657 ± 0.0098	0.7225 ± 0.0025	0.638 ± 0.0075	0.724 ± 0.019	0.43 ± 0.0083	0.462 ± 0.019	0.621 ± 0.0089
PYHAPRPPFSLF	0.149 ± 0.0084	0.511 ± 0.05	0.68 ± 0.0087	0.667 ± 0.021	0.7543 ± 0.0025	0.0708 ± 0.013	0.0545 ± 0.017	0.111 ± 0.04
CACAVPFLLLFF	0.411 ± 0.025	0.474 ± 0.0077	0.519 ± 0.017	0.374 ± 0.022	0.505 ± 0.0063	0.497 ± 0.028	0.347 ± 0.032	0.494 ± 0.023
FGCCLYFCFWGL	0.433 ± 0.005	0.455 ± 0.0063	0.519 ± 0.011	0.386 ± 0.026	0.524 ± 0.0085	0.3524 ± 0.0025	0.372 ± 0.018	0.491 ± 0.016
FFFLVRLCRLCV	0.292 ± 0.055	0.478 ± 0.043	0.558 ± 0.02	0.46 ± 0.019	0.575 ± 0.025	0.266 ± 0.0098	0.261 ± 0.011	0.353 ± 0.0078
GCRLRHRLVRIV	0.2105 ± 0.0013	0.517 ± 0.038	0.646 ± 0.052	0.604 ± 0.035	0.6902 ± 0.0065	0.109 ± 0.048	0.119 ± 0.044	0.201 ± 0.011
VGAGVFAWLWVA	0.199 ± 0.024	0.533 ± 0.02	0.664 ± 0.016	0.59 ± 0.016	0.7101 ± 0.001	0.128 ± 0.025	0.145 ± 0.024	0.135 ± 0.0078
RILSLQFILCKR	0.463 ± 0.0058	0.607 ± 0.025	0.649 ± 0.015	0.538 ± 0.024	0.64 ± 0.0078	0.407 ± 0.013	0.414 ± 0.043	0.546 ± 0.019
CLLVCCCFYRNV	0.469 ± 0.0069	0.501 ± 0.043	0.558 ± 0.0066	0.409 ± 0.032	0.586 ± 0.0086	0.371 ± 0.015	0.399 ± 0.025	0.523 ± 0.0091
FLLLDFMLVSLV	0.483 ± 0.011	0.498 ± 0.015	0.5175 ± 0.0029	0.404 ± 0.022	0.543 ± 0.011	0.371 ± 0.029	0.412 ± 0.036	0.521 ± 0.037
GVSFLFVGVSLV	0.419 ± 0.041	0.469 ± 0.065	0.499 ± 0.01	0.34 ± 0.031	0.5503 ± 0.0019	0.3088 ± 0.00076	0.354 ± 0.015	0.523 ± 0.019
